# ± gives the uncertainty stated by the source.
# Assay: self-splicing fitness, log relative to wild type (ln ratio); higher = more splicing; Tetrahymena group I intron in knt gene, E. coli kanamycin selection, DiMSum; sequences stand for … in CUCUCU…GGAGGGAAAAGUUAUCAGGCAUGCACCUGGUAGCUAGUCUUUAAACCAAUAGAUUGCAUCGGUUUAAAAGGCAAGACCGUCAAAUUGCGGGAAAGGGGUCAACAGCCGUUCAGUACCAAGUCUCAGGGGAAACUUUGAGAUGGCCUUGCAAAGGGUAUGGUAAUAAGCUGACGGACAUGGUCCUAACCACGCAGCCAAGUCCUAAGUCAACAGAUCUUCUGUUGAUAUGGAUGCAGUUCACAGACUAAAUGUCGGUCGGGGAAGAUGUAUUCUUCUCAUAAGAUAUAGUCGGACCUCUCCUUAAUGGGAGCUAGCGGAUGAAGUGAUGCAACACUGGAGCCGCUGGGAACUAAUUUGUAUGCGAAAGUAUAUUGAUUAGUUUUGGAGUACUCGUGGUCG
# How it was run: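 The eight P1ex-region nucleotides of an intron in the knt kanamycin-resistance gene on pET-22b(+) were all randomised and the library put into E. coli BL21(DE3). Six replicate transformations were grown overnight at 37°C or 30°C on LB agar with or without 25 μg/mL kanamycin, together with 100 μg/mL carbenicillin, 50 μM IPTG and 0.2% rhamnose. Colonies were pooled and amplicon-sequenced on an Illumina HiSeq 2500. Fitness from DiMSum is the error-weighted combination of wild-type-normalised replicate fold changes, kanamycin over none.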
Sequence,self-splicing fitness (ln) (30 °C),self-splicing fitness (ln) (37 °C)
AGCAAGCAAUAUUACGGGUC,-2.05 ± 0.22,-1.82 ± 0.21
AGCAAGCAAUAUUACGUAAA,-2.29 ± 0.14,-0.968 ± 0.15
AGCAAGCAAUAUUACGUACA,-1.22 ± 0.074,-0.296 ± 0.085
AGCAAGCAAUAUUACGUGCU,-2.38 ± 0.14,-2.07 ± 0.16
AGCAAGCAAUAUUACGUUAU,-2.78 ± 0.11,-1.54 ± 0.12
AGCAAGCAAUAUUACGUUCU,-0.601 ± 0.084,-0.279 ± 0.087
AGCAAGCAAUAUUACGUUUA,-2.1 ± 0.13,-1.96 ± 0.15
AGCCAGCAAUAUUACGAACU,-0.257 ± 0.11,0.407 ± 0.14
AGCCAGCAAUAUUACGACUC,-4.9 ± 0.46,-2.49 ± 0.27
AGCCAGCAAUAUUACGAGUC,,-1.61 ± 0.21
AGCCAGCAAUAUUACGAUUG,-4.59 ± 0.3,-0.923 ± 0.19
AGCCAGCAAUAUUACGAUUU,-2.3 ± 0.1,-1.24 ± 0.11
AGCCAGCAAUAUUACGCACG,-2.34 ± 0.11,-0.605 ± 0.12
AGCCAGCAAUAUUACGCCAG,-3.96 ± 0.27,-2.23 ± 0.16
AGCCAGCAAUAUUACGCCGG,,-3.39 ± 0.27
AGCCAGCAAUAUUACGCCUC,,-0.728 ± 0.44
AGCCAGCAAUAUUACGGAAU,-1.76 ± 0.12,-1.52 ± 0.14
AGCCAGCAAUAUUACGGAGA,-2.57 ± 0.16,-1.34 ± 0.15
AGCCAGCAAUAUUACGGCAC,-1.26 ± 0.13,-0.402 ± 0.15
AGCCAGCAAUAUUACGGCCA,-0.79 ± 0.089,-0.322 ± 0.11
AGCCAGCAAUAUUACGGGUG,-2.15 ± 0.075,-0.713 ± 0.085
AGCCAGCAAUAUUACGGUGC,-2.49 ± 0.12,-2.28 ± 0.17
AGCCAGCAAUAUUACGGUUA,-0.713 ± 0.13,-0.226 ± 0.11
AGCCAGCAAUAUUACGUAGG,-3.77 ± 0.2,-3.33 ± 0.24
AGCCAGCAAUAUUACGUCAA,-3.18 ± 0.22,-2.53 ± 0.21

Sequence,self-splicing fitness (ln) (30 °C),self-splicing fitness (ln) (37 °C)
AGCCAGCAAUAUUACGUCAG,-3.58 ± 0.17,-2.77 ± 0.23
AGCCAGCAAUAUUACGUCAU,-2.29 ± 0.12,-0.981 ± 0.15
AGCCAGCAAUAUUACGUCGG,-3.89 ± 0.3,-2.97 ± 0.32
AGCCAGCAAUAUUACGUGCC,-2.96 ± 0.15,-1.98 ± 0.14
AGCGAGCAAUAUUACGAACG,-2.14 ± 0.29,-1.5 ± 0.2
AGCGAGCAAUAUUACGACCA,-1.37 ± 0.22,-1.08 ± 0.22
AGCGAGCAAUAUUACGAGAG,-3.19 ± 0.32,-2.94 ± 0.32
AGCGAGCAAUAUUACGAGGU,-3.69 ± 0.24,-2.48 ± 0.3
AGCGAGCAAUAUUACGCACC,-0.941 ± 0.45,-0.411 ± 0.37
AGCGAGCAAUAUUACGCCGU,,-1.24 ± 0.34
AGCGAGCAAUAUUACGCGCG,-4.04 ± 0.33,-1.89 ± 0.25
AGCGAGCAAUAUUACGGAAG,-4.34 ± 0.42,-2.68 ± 0.29
AGCGAGCAAUAUUACGGCCG,-2.6 ± 0.34,-1.72 ± 0.26
AGCGAGCAAUAUUACGGCGC,-2.72 ± 0.22,-1.98 ± 0.2
AGCGAGCAAUAUUACGGGAA,,-1.86 ± 0.27
AGCGAGCAAUAUUACGGGGA,-2.64 ± 0.35,-1.22 ± 0.22
AGCGAGCAAUAUUACGGGGG,-2.6 ± 0.33,-2.04 ± 0.41
AGCGAGCAAUAUUACGUAUC,,-3.38 ± 0.39
AGCGAGCAAUAUUACGUCUG,-2.03 ± 0.11,-1.8 ± 0.14
AGCGAGCAAUAUUACGUGAC,-3.4 ± 0.28,
AGCGAGCAAUAUUACGUGGC,-4.97 ± 0.31,-2.46 ± 0.2
AGCGAGCAAUAUUACGUGGU,-3.2 ± 0.25,-3.06 ± 0.22
AGCGAGCAAUAUUACGUUAG,-2.38 ± 0.11,-3.18 ± 0.27
AGCGAGCAAUAUUACGUUUA,,-1.96 ± 0.26
AGCUAGCAAUAUUACGACGC,-1.63 ± 0.098,-0.406 ± 0.13
